Data reported in publication PMC3515690 (Nature structural & molecular biology, 2012).

Tests used:
[1] = biological target: T1, Atg7 (residues 1–613) (S. cerevisiae, UniProt P38862 1-613, catalytic Cys507 linked through bismaleimidoethane (BMOE) to Atg3 Cys234); assay: crystal structure
T1 sequence (looked up): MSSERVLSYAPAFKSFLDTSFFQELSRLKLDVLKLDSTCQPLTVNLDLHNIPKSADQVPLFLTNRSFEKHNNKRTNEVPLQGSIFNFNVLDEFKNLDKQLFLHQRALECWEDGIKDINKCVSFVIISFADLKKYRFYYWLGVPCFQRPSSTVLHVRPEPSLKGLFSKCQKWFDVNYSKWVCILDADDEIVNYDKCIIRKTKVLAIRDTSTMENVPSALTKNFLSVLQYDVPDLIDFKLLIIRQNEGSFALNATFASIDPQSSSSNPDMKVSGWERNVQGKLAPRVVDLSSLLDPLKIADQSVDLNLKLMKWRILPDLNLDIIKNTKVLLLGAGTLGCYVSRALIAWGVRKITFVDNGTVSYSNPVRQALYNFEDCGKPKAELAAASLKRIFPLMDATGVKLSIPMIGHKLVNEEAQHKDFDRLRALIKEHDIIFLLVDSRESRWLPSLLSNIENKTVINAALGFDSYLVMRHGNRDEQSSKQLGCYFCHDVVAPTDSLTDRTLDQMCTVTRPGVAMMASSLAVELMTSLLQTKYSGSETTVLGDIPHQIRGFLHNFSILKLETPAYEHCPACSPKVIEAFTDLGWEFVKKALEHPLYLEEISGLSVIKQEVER

[2] = biological target: T2, Atg7 V285D (S. cerevisiae, UniProt P38862 1-630, V285D); assay: cross-linking
T2 sequence (looked up): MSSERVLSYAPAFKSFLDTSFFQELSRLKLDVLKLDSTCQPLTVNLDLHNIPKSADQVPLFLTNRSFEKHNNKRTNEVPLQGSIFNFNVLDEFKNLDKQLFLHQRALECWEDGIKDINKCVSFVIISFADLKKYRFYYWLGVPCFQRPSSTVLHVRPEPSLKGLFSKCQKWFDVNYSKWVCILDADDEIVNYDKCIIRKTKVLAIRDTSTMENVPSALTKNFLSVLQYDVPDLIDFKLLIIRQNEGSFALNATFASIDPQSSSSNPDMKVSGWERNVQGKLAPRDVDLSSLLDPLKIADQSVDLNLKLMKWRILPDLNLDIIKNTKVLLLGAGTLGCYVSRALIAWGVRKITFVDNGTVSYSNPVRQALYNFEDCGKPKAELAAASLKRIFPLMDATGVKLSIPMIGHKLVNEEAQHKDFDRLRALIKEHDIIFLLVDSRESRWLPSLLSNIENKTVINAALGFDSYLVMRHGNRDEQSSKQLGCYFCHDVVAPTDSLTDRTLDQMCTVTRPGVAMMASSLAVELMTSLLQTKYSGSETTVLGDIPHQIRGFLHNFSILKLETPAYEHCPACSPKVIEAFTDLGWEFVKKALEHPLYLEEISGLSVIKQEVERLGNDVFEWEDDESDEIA

B1: Atg3(C41A C76A C83A) (enzyme, S. cerevisiae)
chain: MIRSTLSSWREYLTPITHKSTFLTTGQITPEEFVQAGDYLAHMFPTWKWNEESSDISYRDFLPKNKQFLIIRKVPADKRAEQAVEVEGPDVIMKGFAEDGDEDDVLEYIGSETEHVQSTPAGGTKDSSIDDIDELIQDMEIKEEDENDDTEEFNAKGGLAKDMAQERYYDLYIAYSTSYRVPKMYIVGFNSNGSPLSPEQMFEDISADYRTKTATIEKLPFYKNSVLSVSIHPCKHANVMKILLDKVRVVRQRRRKELQEEQELDGVGDWEDLQDDIDDSLRVDQYLIVFLKFITSVTPSIQHDYTMEGW
modifications: Cys234 reacted with bismaleimidoethane (BMOE)
[1]
  binding result: binds
[2]
  binding result: binds
